Measurements as given in patent publication US20120003235A1 (published 2012).

T1: soluble Flag-tagged LTα1β2 (UniProt P01374 35-205, limits assumed)
T1 construct: Soluble, Flag-tagged heterotrimer captured on anti-Flag M2 in Biacore; also called Ligand
T1 sequence 1: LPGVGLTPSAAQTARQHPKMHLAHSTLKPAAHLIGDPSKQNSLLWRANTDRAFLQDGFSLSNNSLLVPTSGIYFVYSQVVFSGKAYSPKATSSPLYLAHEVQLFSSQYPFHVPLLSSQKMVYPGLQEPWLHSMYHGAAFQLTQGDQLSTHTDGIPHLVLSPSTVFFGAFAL
T1 sequence 2: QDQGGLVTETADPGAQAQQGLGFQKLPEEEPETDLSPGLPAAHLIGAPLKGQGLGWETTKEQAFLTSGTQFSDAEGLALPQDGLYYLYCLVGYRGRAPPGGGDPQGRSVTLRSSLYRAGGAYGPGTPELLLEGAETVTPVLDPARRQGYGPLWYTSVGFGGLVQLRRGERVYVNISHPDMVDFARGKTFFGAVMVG


Assays:
[1] = target: T1, soluble Flag-tagged LTα1β2; assay: SPR (Biacore 3000), Flag-LTα1β2 captured on anti-Flag M2 chip; apparent affinity of intact antibody
[2] = target: T1, soluble Flag-tagged LTα1β2; assay: SPR (Biacore 3000), Flag-LTα1β2 captured on anti-Flag M2 chip; LTβR binding site 1
[3] = target: T1, soluble Flag-tagged LTα1β2; assay: SPR (Biacore 3000), Flag-LTα1β2 captured on anti-Flag M2 chip; LTβR binding site 2
[4] = target: T1, soluble Flag-tagged LTα1β2; assay: SPR (Biacore 3000), Flag-LTα1β2 captured on anti-Flag M2 chip; Fab fragment

Row | Binder | Kd [1] [nM] | also measured
1 | mAb LT102 (P1G8.2) (antibody, V domains shown, only mature variable domains printed; also called LT012) VH: EVKLVESGGGLVKPGGSLKLSCAVSGFTFSDYYMYWIRQTPEKRLEWVATIGDGTSYTHYPDSVQGRFTISRDYATNNLYLQMTSLRSEDTALYYCARDLGTGPFAYWGQGTLVTVSA VL: DVLMTQTPRSLPVSLGDQASISCRSSQNIVHSNGNTYLEWYLQKPGQSPKLLIYKVSNRFSGVPDRFSGSGSGTDFTLKISRVEAEDLGVYYCFQGSHFPWTFGGGTKLEIK | ≤ 0.3 | 
2 | mAb 9B4 (antibody, V domains shown, Murine monoclonal antibody; only mature variable domains printed; kappa light chain; also called LT 9B4; LT9B4) VH: QVTLKESGPGILQPSQTLSLTCSFSGFSLSTSGMGVSWIRQPSGKGLEWLAHIYWDDDKRYNPSLRSRLTISKDTSRNQVFLKITSVDTADTATYYCARREGYYGSSFDFDVWGAGTTVTVSS VL: QIVLSQSPAILSASPGEKVTMTCRASSSVSYMIWYQQKPGSSPKPWIYATSSLASGVPTRFSGSGSGTSYSLTISRVEAADAATYYCQQWSYNPLTFGAGTKLELK | ≤ 0.3 | 
3 | monomeric LTβR (receptor, UniProt P36941 28-227, looked up, Injected at 20 µM in Biacore; also called LTbR) SQPQAVPPYASENQTCRDQEKEYYEPQHRICCSRCPPGTYVSAKCSRIRDTVCATCAENSYNEHWNYLTICQLCRPCDPVMGLEEIAPCTSKRKTQCRCQPGMFCAAWALECTHCELLSDCPPGTEAELKDEVGKGNNHCVPCKAGHFQNTSSPSARCQPHTRCENQGLVEAAPGTAQSDTTCKNPLEPLPPEMSGTMLM |  | Kd [2]: ~50 nM; Kd [3]: ~1500 nM
4 | mAb LT105 (P2E9.7) (antibody, V domains shown, only mature variable domains printed) VH: DVQLQESGPGLVKPSQSLSLTCSVTGYSITSGYYWNWIRQFPGNKLEGMGYISYDGSNNYNPSLKNRISITRDSSKNQFFLKLNSVTAEDSGTYYCARDAYSYGMDYWGQGTSVTVSS VL: DIVLTQSPASLAVSLGQRATISCRASESVDNYGISFMHWYQQKPGQPPKLLIYRASNLESGIPARFSGSGSRTDFTLTINPVETDDVATFYCQQSNKDPYTFGGGTKLEIK | ≤ 0.3 | 
5 | LT105 Fab fragment (Fab, V domains shown) VH: DVQLQESGPGLVKPSQSLSLTCSVTGYSITSGYYWNWIRQFPGNKLEGMGYISYDGSNNYNPSLKNRISITRDSSKNQFFLKLNSVTAEDSGTYYCARDAYSYGMDYWGQGTSVTVSS VL: DIVLTQSPASLAVSLGQRATISCRASESVDNYGISFMHWYQQKPGQPPKLLIYRASNLESGIPARFSGSGSRTDFTLTINPVETDDVATFYCQQSNKDPYTFGGGTKLEIK |  | Kd [4]: ≥ 2 nM
